Laboratory results published in publication PMC4748814.
Substitutions are numbered along the chain they refer to.

Legend:
PNPase [1] = test: BLI; conditions: EMSA: 20 mM Tris pH 7.5, 100 mM NaCl, 1 mM MgCl2, 1 mM DTT, 30 C, 0.2 uM RNA; BLI: same buffer + 1 mg/mL acetylated BSA; ITC: 20 mM Tris-HCl pH 7.5, 1 mM …
[2] = tested on: PNPase S437-9A (active site mutant); test: BLI; conditions: EMSA: 20 mM Tris pH 7.5, 100 mM NaCl, 1 mM MgCl2, 1 mM DTT, 30 C, 0.2 uM RNA; BLI: same buffer + 1 mg/mL acetylated BSA; ITC: 20 mM Tris-HCl pH 7.5, 1 mM …
PNPase [3] = biological target: T1, PNPase (UniProt P05055); test: ITC; conditions: EMSA: 20 mM Tris pH 7.5, 100 mM NaCl, 1 mM MgCl2, 1 mM DTT, 30 C, 0.2 uM RNA; BLI: same buffer + 1 mg/mL acetylated BSA; ITC: 20 mM Tris-HCl pH 7.5, 1 mM …
T1 sequence: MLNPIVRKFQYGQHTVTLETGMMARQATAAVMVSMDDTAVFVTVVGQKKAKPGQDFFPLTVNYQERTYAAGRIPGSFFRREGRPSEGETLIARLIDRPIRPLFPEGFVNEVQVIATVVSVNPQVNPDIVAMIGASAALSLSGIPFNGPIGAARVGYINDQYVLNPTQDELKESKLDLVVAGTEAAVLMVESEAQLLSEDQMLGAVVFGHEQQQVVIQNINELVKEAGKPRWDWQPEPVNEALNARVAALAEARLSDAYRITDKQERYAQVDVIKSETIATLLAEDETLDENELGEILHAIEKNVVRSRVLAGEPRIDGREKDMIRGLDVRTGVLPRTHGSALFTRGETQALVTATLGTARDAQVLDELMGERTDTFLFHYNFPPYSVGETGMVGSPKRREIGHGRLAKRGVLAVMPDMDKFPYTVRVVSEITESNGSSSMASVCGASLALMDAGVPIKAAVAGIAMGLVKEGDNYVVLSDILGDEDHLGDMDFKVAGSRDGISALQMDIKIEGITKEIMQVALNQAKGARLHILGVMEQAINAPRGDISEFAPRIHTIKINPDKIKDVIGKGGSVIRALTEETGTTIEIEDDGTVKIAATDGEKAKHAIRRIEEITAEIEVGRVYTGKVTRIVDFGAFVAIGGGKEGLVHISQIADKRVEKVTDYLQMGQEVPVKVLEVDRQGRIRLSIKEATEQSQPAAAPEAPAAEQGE

[4] = biological target: T2, PNPase S437-9A (active site mutant) S437A;S438A;S439A (UniProt P05055); test: BLI; conditions: EMSA: 20 mM Tris pH 7.5, 100 mM NaCl, 1 mM MgCl2, 1 mM DTT, 30 C, 0.2 uM RNA; BLI: same buffer + 1 mg/mL acetylated BSA; ITC: 20 mM Tris-HCl pH 7.5, 1 mM …
T2 sequence: T1 sequence with S437A, S438A, S439A

PNPase [5] = biological target: T1, PNPase; test: BLI; conditions: EMSA: 20 mM Tris pH 7.5, 100 mM NaCl, 1 mM MgCl2, 1 mM DTT, 30 C, 0.2 uM RNA; BLI: same buffer + 1 mg/mL acetylated BSA; ITC: 20 mM Tris-HCl pH 7.5, 1 mM …
[6] = biological target: PNPase;Hfq (Escherichia coli K-12 MG1655 derivative?;Escherichia coli?) (UniProt P05055+P0A6X3); test: EMSA; conditions: EMSA: 20 mM Tris pH 7.5, 100 mM NaCl, 1 mM MgCl2, 1 mM DTT, 30 C, 0.2 uM RNA; BLI: same buffer + 1 mg/mL acetylated BSA; ITC: 20 mM Tris-HCl pH 7.5, 1 mM …
[7] = biological target: T2, PNPase S437-9A (active site mutant) S437A;S438A;S439A; test: EMSA; conditions: EMSA: 20 mM Tris pH 7.5, 100 mM NaCl, 1 mM MgCl2, 1 mM DTT, 30 C, 0.2 uM RNA; BLI: same buffer + 1 mg/mL acetylated BSA; ITC: 20 mM Tris-HCl pH 7.5, 1 mM …
PNPase [8] = biological target: T1, PNPase; test: EMSA; conditions: EMSA: 20 mM Tris pH 7.5, 100 mM NaCl, 1 mM MgCl2, 1 mM DTT, 30 C, 0.2 uM RNA; BLI: same buffer + 1 mg/mL acetylated BSA; ITC: 20 mM Tris-HCl pH 7.5, 1 mM …
Hfq = Hfq (UniProt P0A6X3); test: EMSA; conditions: EMSA: 20 mM Tris pH 7.5, 100 mM NaCl, 1 mM MgCl2, 1 mM DTT, 30 C, 0.2 uM RNA; BLI: same buffer + 1 mg/mL acetylated BSA; ITC: 20 mM Tris-HCl pH 7.5, 1 mM …
PNPase delta-KH delta-S1 = biological target: T3, PNPase delta-KH delta-S1 (UniProt P05055); test: EMSA; conditions: EMSA: 20 mM Tris pH 7.5, 100 mM NaCl, 1 mM MgCl2, 1 mM DTT, 30 C, 0.2 uM RNA; BLI: same buffer + 1 mg/mL acetylated BSA; ITC: 20 mM Tris-HCl pH 7.5, 1 mM …
T3 sequence: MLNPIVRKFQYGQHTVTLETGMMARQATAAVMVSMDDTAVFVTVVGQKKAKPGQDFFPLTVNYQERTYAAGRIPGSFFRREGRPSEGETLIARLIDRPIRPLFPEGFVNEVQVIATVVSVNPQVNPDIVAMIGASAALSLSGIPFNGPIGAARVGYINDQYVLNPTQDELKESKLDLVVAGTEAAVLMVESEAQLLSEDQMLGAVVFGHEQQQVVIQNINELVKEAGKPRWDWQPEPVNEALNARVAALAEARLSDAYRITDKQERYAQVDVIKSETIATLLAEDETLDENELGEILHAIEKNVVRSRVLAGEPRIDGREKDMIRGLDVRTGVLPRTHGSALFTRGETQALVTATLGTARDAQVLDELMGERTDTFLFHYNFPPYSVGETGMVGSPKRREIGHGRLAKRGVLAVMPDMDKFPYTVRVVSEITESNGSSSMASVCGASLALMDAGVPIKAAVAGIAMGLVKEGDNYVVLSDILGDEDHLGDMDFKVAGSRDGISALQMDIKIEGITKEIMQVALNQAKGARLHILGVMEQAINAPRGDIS

PNPase delta-S1 = biological target: T4, PNPase delta-S1 (UniProt P05055); test: EMSA; conditions: EMSA: 20 mM Tris pH 7.5, 100 mM NaCl, 1 mM MgCl2, 1 mM DTT, 30 C, 0.2 uM RNA; BLI: same buffer + 1 mg/mL acetylated BSA; ITC: 20 mM Tris-HCl pH 7.5, 1 mM …
T4 sequence: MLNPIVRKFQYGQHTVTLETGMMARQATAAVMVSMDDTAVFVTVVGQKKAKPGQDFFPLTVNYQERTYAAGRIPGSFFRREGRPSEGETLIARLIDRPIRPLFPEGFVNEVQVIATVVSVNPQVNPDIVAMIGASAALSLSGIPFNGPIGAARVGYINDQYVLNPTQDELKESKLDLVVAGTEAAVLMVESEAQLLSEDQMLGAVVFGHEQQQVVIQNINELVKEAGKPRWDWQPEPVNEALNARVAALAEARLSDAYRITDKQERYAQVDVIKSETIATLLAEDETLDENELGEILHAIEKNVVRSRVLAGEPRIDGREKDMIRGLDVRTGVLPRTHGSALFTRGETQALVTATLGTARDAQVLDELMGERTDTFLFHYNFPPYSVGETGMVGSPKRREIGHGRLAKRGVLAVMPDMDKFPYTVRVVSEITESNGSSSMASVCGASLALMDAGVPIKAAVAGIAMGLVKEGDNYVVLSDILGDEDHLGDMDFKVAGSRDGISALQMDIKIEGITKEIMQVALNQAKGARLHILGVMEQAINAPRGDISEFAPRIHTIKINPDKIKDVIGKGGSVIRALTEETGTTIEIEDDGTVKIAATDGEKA

PNPase [9] = test: ITC; conditions: no phosphate, 1 mM Mg2+, 30 C, N = 1.01, EMSA: 20 mM Tris pH 7.5, 100 mM NaCl, 1 mM MgCl2, 1 mM DTT, 0.2 uM RNA, BLI: same buffer + 1 mg/mL acetylated …, ITC: 20 mM Tris-HCl pH 7.5, 1 mM MgCl2

PNPase;Hfq (Escherichia coli K-12 MG1655 derivative?;Escherichia coli?), sequence (P0A6X3 whole entry, one chain of several): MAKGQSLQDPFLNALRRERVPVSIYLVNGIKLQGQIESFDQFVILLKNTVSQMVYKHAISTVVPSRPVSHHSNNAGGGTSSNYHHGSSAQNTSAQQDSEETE
Hfq, sequence (P0A6X3 whole entry): as the sequence (P0A6X3 whole entry, one chain of several) above

| Substance | binding [6] | binding [7] | binding (PNPase [8]) | binding (Hfq) | binding (PNPase delta-S1) | also measured |
| --- | --- | --- | --- | --- | --- | --- |
| 5'-biotin RyhB (9U) | – | – | – | – | – | Kd (PNPase [1]): 15.8 nM; Kd [2]: 149 nM |
| GCGAUCAGGAAGACCCUCGCGGAGAACCUGAAAGCACGACAUUGCUCACAUUGCUUCCAGUAUUACUUAGCCAGCCGGGUGCUGGCUUUU [RyhB (4U)] | – | – | – | – | – | Kd (PNPase [3]): 85 nM |
| GCGAUCAGGAAGACCCUCGCGGAGAACCUGAAAGCACGACAUUGCUCACAUUGCUUCCAGUAUUACUUAGCCAGCCGGGUGCUGGCUUUUUUUUU [5'-biotin RyhB (9U)] | – | – | – | – | – | Kd [4]: 149 nM; Kd (PNPase [5]): 15.8 nM |
| GCGAUCAGGAAGACCCUCGCGGAGAACCUGAAAGCACGACAUUGCUCACAUUGCUUCCAGUAUUACUUAGCCAGCCGGGUGCUGGCUUUUUUUUU [RyhB (9U)] | binds | binds more weakly | binds | binds | binds more weakly | binding (PNPase delta-KH delta-S1): binds more weakly |
| GCUGAAAAACAUAACCCAUAAAAUGCUAGCUGUACCAGGAACCACCUCCUUAGCCUGUGUAAUCUCCCUUACACGGGCUUAUUUUUU [CyaR] | binds | binds more weakly | binds | binds | binds more weakly | – |
| RyhB (4U) | – | – | – | – | – | Kd (PNPase [9]): 85 nM |
